The values below come from patent US6582689B1, “IL-18/IGIF chemotherapeutic compositions” (Smithkline Beecham Corporation, priority 1998, dated 2003).

Data set [1] concerns B16F10 melanoma. In words: advanced subcutaneous B16F10 melanoma (Example VI). The format is in vivo, mice. Here is the method:
In this experiment, IL-18 was evaluated in an advanced syngeneic tumor model alone and in combination with chemotherapy. Mice bearing advanced subcutaneous B16F10 melanoma were treated with IL-18 alone or in combination with either cyclophosphamide or topotecan. Treatment was initiated on Day 11 postimplantation.

Data set [2] deals with B16F10 melanoma. In words: advanced subcutaneous B16F10 melanoma, repeat with cyclophosphamide (Example VII). The note with it: for regressions: treatment from median 100 mm^3 (Day 14). The format is in vivo, mice.
Data set [3] deals with mammary adenocarcinoma 16/c. In words: subcutaneous mammary adenocarcinoma 16/c, IL-18 and doxorubicin (Example IX). The note with it: for regressions: alone or combined. The format is in vivo, mouse.
Protocol: (§1) An experiment was conducted to determine the effectiveness of IL-18 on its own and in combination with doxorubicin in the 16/c mammary adenocarcinoma tumor model. The 16/c line was implanted subcutaneously at a 1:10 brei and allowed to grow to a median of 52-109 mm^3 before initiation of treatment. Doxorubicin was administered intravenously on Days 12 and 19 at 7.2, 12, and 20 mg/kg. IL-18 was administered subcutaneously at 1, 10, and 100 μg/mouse on a qD×21 schedule starting from Day 12. The endpoints of this study were tumor growth delay and regression.
For data set [4] the following is noted: mouse, in vivo.
Protocol: as §1
A short description of data set [5]: toxicity and toxic deaths in the 16/c experiment (Example IX).
Protocol: as §1
Data set [6] concerns Madison 109 lung carcinoma. Put plainly: subcutaneous Madison 109 lung carcinoma, IL-18 and paclitaxel (Example VIII). The note with it: for regressions: alone or combined. The format is in vivo, mouse.
For data set [7] the following is noted: paclitaxel 24 mg/kg iv qD×5.
The test system of data set [8] is MOPC-315 plasmacytoma. In words: established subcutaneous MOPC-315 plasmacytoma (Example III). The format is in vivo, BALB/c mice. The method, then:
The MOPC-315 plasmacytoma is analogous to the human cancer known as multiple myeloma. This tumor is a malignancy of the plasma cells, a mature form of B lymphocytes involved in antibody expression. MOPC-315 grows rapidly to a very large size in syngeneic BALB/c mice. It is not highly metastatic or invasive.
IL-18 was evaluated in mice bearing established subcutaneous MOPC-315 plasmacytoma. In order to increase chances of seeing an effect of immunotherapy, IL-18 was evaluated in combination with an effective chemotherapeutic agent as well as by monotherapy. IL-18 at 0.3, 1, 3, and 10 μg/mouse was administered daily intraperitonealy and topotecan was administered intraperitonealy on a q4D schedule at 9 and 15 mg/kg. Both drugs were started on Day 11 postimplantation when the median tumor volume ranged from 32 to 88 mg. Control tumors took 17.2 days to grow to 1 gram. (See FIGS. 5-7).

The subject of data set [9] is MOPC-315 plasmacytoma. In words: advanced MOPC-315 plasmacytoma, confirmation with higher IL-18 doses (Example IV). The format is in vivo, mice. Here is the method:
The activity of IL-18 in combination with topotecan in mice bearing advanced MOPC-315 plasmacytoma was confirmed in a large experiment in which higher doses of IL-18 were used. In this experiment, topotecan was administered q4D×6 beginning on Day 10 and IL-18 was given qD×30 beginning on the same day. Both drugs were administered intraperitonealy and activity was assessed by tumor measurements.

Data set [10] relates to Lewis lung carcinoma.
Protocol: Treatment was delayed until Day 7 when tumors were established and growing in the lungs. Half of the mice in each group were killed on Day 16 to determine effects of treatment on pulmonary tumor growth, the remaining mice were continued under treatment and monitored for survival. […] Topotecan was administered intraperitonealy q4D×7 beginning on Day 7 and ending on Day 32 and the doses shown are in mg/kg. Murine IL-18 was administered intraperitonealy UID from Day 7 to Day 32 and the doses shown are μg/mouse. There were 3 groups of control animals, all of which died between Day 17 and 30.
Data set [11] relates to Lewis lung carcinoma. Put plainly: advanced systemic Lewis lung carcinoma, confirmation with higher IL-18 doses (Example II). The conditions noted are these: for tumor weight and nodule count: Day 14.
Protocol: This experiment included the use of higher doses of IL-18. […] The remaining mice were continued under treatment and monitored for survival. Topotecan was administered intraperitonealy q4D×6 on Days 7, 11, 15, 19, 23, and 29; dosage levels shown are mg/kg. Murine IL-18 was administered intraperitonealy qD×26 from Day 7 to Day 33; dosage levels shown are μg/mouse.
The test system of data set [12] is MOPC-315 plasmacytoma. In words: advanced MOPC-315 plasmacytoma, schedule and route study (Example V). The format is in vivo, mice. The method, then:
The evaluation of IL-18 in combination with chemotherapy was repeated to establish: (a) how effective is IL-18 in tumor models when given subcutaneously and (b) whether IL-18 is active when given on an intermittent schedule or whether daily treatment is necessary. The experiment was set up again with topotecan in the advanced MOPC-315 plasmacytoma model with treatment starting on Day 10 when tumors were about 100 mm^3 in volume. Topotecan was given at its MTD of 15 mg/kg on a q4D regimen and IL-18 was given over a broad dosage range either intraperitonealy or subcutaneously on a q1D or q4D regimen. […] However, IL-18 was continued. (See FIGS. 11-13).

The subject of data set [13] is colon 26 adenocarcinoma. The note with it: Hanaya et al. 1996; cited from earlier work.
Where [14] appears, read: cyclophosphamide MTD 300 mg/kg q7D.
[15] abbreviates: topotecan MTD 15 mg/kg ip q4D from Day 11.
The mark [16] stands for this setting: topotecan MTD 15 mg/kg q4D, Day 16.
Where [17] appears, read: topotecan 9 mg/kg ip q4D×6 from Day 7.
Where [18] appears, read: topotecan 15 mg/kg ip q4D×6 from Day 7.
The mark [19] stands for this setting: IL-18 0.3 μg/mouse ip UID Day 7-32.
[20] abbreviates: IL-18 1 μg/mouse ip UID Day 7-32.
The mark [21] stands for this setting: IL-18 3 μg/mouse ip UID Day 7-32.
[22] abbreviates: IL-18 10 μg/mouse ip UID Day 7-32.
Setting [23] is: IL-18 alone 0.3-10 μg/mouse ip UID, Day 16, no clear dose-response.
The mark [24] stands for this setting: IL-18 1 μg/mouse ip qD×26 Day 7-33.
Where [25] appears, read: IL-18 3 μg/mouse ip qD×26 Day 7-33.
Where [26] appears, read: IL-18 10 μg/mouse ip qD×26 Day 7-33.
Setting [27] is: IL-18 30 μg/mouse ip qD×26 Day 7-33.
Setting [28] is: IL-18 100 μg/mouse ip qD×26 Day 7-33.

“Also recorded” adds a separate entry of the source. Read-outs that look alike come from different tables or passages of the source.

For the molecule `O=P1(N(CCCl)CCCl)NCCCO1` (stereo not shown) [Cyclophosphamide, cyclophosphamide], the increase in survival in [1] (setting [14]) is listed as 95%. In addition, the values for the tumor growth delay in data set [1] (setting [14]), in data set [2] (cyclophosphamide MTD) and in data set [2] (cyclophosphamide suboptimal dose 180 mg/kg) were 14 days, 14 days and 4 days, respectively. Besides, the regressions result in [2] is given as “no regressions”.
Consider `COc1cccc2c1C(=O)c1c(O)c3c(c(O)c1C2=O)C[C@@](O)(C(=O)CO)C[C@@H]3O[C@H]1C[C@H](N)[C@H](O)[C@H](C)O1` [Doxorubicin, doxorubicin], for which, in data set [3], the regressions entry is “no regressions”. In [3] (doxorubicin 7.2, 12, 20 mg/kg iv), the “tumor growth delay” value is given as “dose-dependent tumor growth delay”. Moreover, in data set [3] (doxorubicin at 1/3 of its MTD), the efficacy entry was “little or no efficacy”. Besides, in data set [4], the weight loss result was “no weight loss”. In [5] (mouse, in vivo, iv), the MTD is 20 mg/kg.
`CC(=O)O[C@H]1C(=O)[C@@]2(C)[C@H]([C@H](OC(=O)c3ccccc3)[C@]3(O)C[C@H](OC(=O)[C@H](O)[C@@H](NC(=O)c4ccccc4)c4ccccc4)C(C)=C1C3(C)C)[C@]1(OC(C)=O)CO[C@@H]1C[C@@H]2O` [Paclitaxel, paclitaxel, reference compound]: the regressions entry in [6] is given as “no regressions”. Moreover, in data set [6] (paclitaxel 12 mg/kg iv qD×5), the “ILS (increased life span)” value is listed as 27% ILS. Further, in data set [6] (paclitaxel 12 mg/kg iv qD×5 (Days 9-13)), the “T-C: tumor growth delay” value is reported as “T-C 3.5 days,”. For the same molecule, in data set [6] (paclitaxel 24 mg/kg iv qD×5), the “ILS (increased life span)” value came out at 35% ILS and the “T-C: tumor growth delay” value is recorded as “T-C 9.7 days,”. In addition, in [6] (paclitaxel alone), the “survival” value is “minimal prolongation of survival” and the “tumor growth delay” value is “minimal tumor growth delay”. This molecule came in with a body weight loss in [7] of 4.7 g.
Take `CC[C@@]1(O)C(=O)OCc2c1cc1n(c2=O)Cc2cc3c(CN(C)C)c(O)ccc3nc2-1` [Topotecan, topotecan, reference compound]: the regressions result in data set [8] (topotecan 9 mg/kg ip q4D) is on record as “no regressions”. The tumor growth delay in [8] (topotecan 9 mg/kg ip q4D) is 4 days; in data set [8] (setting [15]), “about 12 days”. Moreover, the results for the complete regressions in data set [8] (setting [15]) and in [9] (topotecan MTD alone ip q4D×6 from Day 10) were 1/7 and 2/6, respectively. The effect on tumor result in data set [9] (topotecan suboptimal dose alone) is “virtually no effect”. The antitumor activity entry in [1] (topotecan at its MTD) was “inactive”. In addition, the “Increase in Lifespan” value in data set [10] (topotecan 9.0 mg/kg (0.6×MTD) ip q4D×7 from Day 7) is reported as 63%; in [10] (topotecan 15 mg/kg (MTD) ip q4D×7 from Day 7), 68%; in [11] (setting [17]) it was 42%; in [11] (setting [18]) it was 86%. Besides, the “Median Survival Time” value in [10] (topotecan 9.0 mg/kg ip q4D×7 from Day 7) is 36 days; in data set [10] (topotecan 15 mg/kg ip q4D×7 from Day 7), 37 days; in data set [11] (setting [17]), 25.5 days; in [11] (setting [18]), 33.5 days. In addition, the “average number of pulmonary tumor nodules” value in data set [10] (setting [16]) is recorded as 45. Besides, in data set [10] (setting [16]), the “suppression of tumor growth” value is on record as above 90%. The “tumor weight and nodule count” value was “good reduction in tumor weight and nodule count” in data set [11] (topotecan MTD 15 mg/kg); “lesser effect on both parameters” in data set [11] (topotecan lower dose 9 mg/kg).

B1: IL-18: cytokine, interferon-γ-inducing factor; murine IL-18 (SEQ ID NO:2) was administered to mice (protein)
chain: NFGRLHCTTAVIRNINDQVLFVDKRQPVFEDMTDIDQSASEPQTRLIIYMYKDSEVRGLAVTLSVKDSKMSTLSCKNKIISFEEMDPPENIDDIQSDLIFFQKRVPGHNKMEFESSLYEGHFLACQKEDDAFKLILKKKDENGDKSVMFTLTNLHQS
modifications: Mouse
Turning to B1, the tumor growth delay is 1.3 to 3.1 days in data set [8] (IL-18 alone 0.3, 1, 3, 10 μg/mouse daily ip from Day 11); “about 2 days” in data set [2] (IL-18 alone); “less than a week” in data set [3] (IL-18 alone 1-100 μg/mouse, no dose-response). The “effect on tumor growth of established tumors” value in data set [8] (IL-18 alone 0.3-10 μg/mouse daily ip from Day 11) is recorded as “only a minimal effect on the tumor growth; also recorded: no effect of IL-18 alone on tumor growth”. In addition, the complete regressions in data set [9] (IL-18 alone 100 μg/mouse/day ip qD×30 from Day 10) is listed as 4 of 6. Further, the effect on tumor result in [9] (IL-18 alone, doses lower than 100 μg/mouse/day) was “ineffective”. In data set [12] (IL-18 alone q1D 100 μg/day, ip and sc), the antitumor activity result is on record as “active”. For the same molecule, in data set [12] (IL-18 alone q1D 100 μg/day, ip versus sc), the route comparison entry is reported as “intraperitoneal was more effective”. Further, the induction of regression entry in data set [12] (IL-18 alone, intermittent, 1000 or 100 μg/dose) is listed as “ineffective in inducing regression”. In data set [1] (IL-18 alone from Day 11), the “ILS (effect on survival time)” value is below 30%. In data set [1] (IL-18 alone from Day 11), the “effect on tumor growth” value is given as “no effect on tumor growth”. Also, the regressions entry in data set [2], in data set [6] and in data set [3] was “no regressions” throughout. Further, the figures for the “T-C: tumor growth delay” value in data set [6] (IL-18 1 μg sc qD×21), in data set [6] (IL-18 10 μg sc qD×21) and in data set [6] (IL-18 100 μg sc qD×21) were “T-C 1.7 days,”, “T-C 2.1 days,” and “T-C 2.8 days,”, respectively. The “ILS (increased life span)” value is given as 12% ILS in data set [6] (IL-18 10 μg sc qD×21) and 0% ILS in [6] (IL-18 100 μg sc qD×21). The “tumor growth” value in data set [6] (IL-18 alone at the low dose) was “without delaying tumor growth”. Besides, the “Increase in Lifespan” value is 0% in [10] (setting [19]); 2% in [10] (setting [20]); 4% in data set [10] (setting [21]); 9% in data set [10] (setting [22]); 11% in data set [11] (setting [24]); 0% in [11] (setting [25]). The “Increase in Lifespan” value in [11] (setting [26]) was found to be 0%; in data set [11] (setting [27]), 3%; in data set [11] (setting [28]) it was 22%. For the same molecule, the “Median Survival Time” value in data set [10] (setting [19]) turned out to be 22 days; in data set [10] (setting [20]), 22.5 days; in data set [10] (setting [21]) it was 23 days; in data set [10] (setting [22]), 24 days; in data set [11] (setting [24]), 20 days; in [11] (setting [25]) it was 18 days. The “Median Survival Time” value in data set [11] (setting [26]) amounted to 18 days; in [11] (setting [27]), 18.5 days; in data set [11] (setting [28]) it was 22 days. For the same molecule, the “effect on survival time” value in data set [10] (IL-18 alone 0.3-10 μg/mouse ip UID) is “no effect on survival time; also recorded: did not have an enhanced median survival time”. For the same molecule, the “lung tumor nodule count” value in [10] (setting [23]) is given as “significantly decreased”. The lung tumor weight entry in [10] (setting [23]) was “significantly decreased”. Moreover, the “metastasis and growth of tumor” value in data set [13] is “inhibit the metastasis and growth of colon 26 adenocarcinoma”. In addition, the toxicity result in data set [5] (IL-18 1 μg/mouse qD×21 from Day 12), in data set [5] (IL-18 10 μg/mouse qD×21 from Day 12) and in data set [5] (IL-18 100 μg/mouse qD×21 from Day 12) was “Not Toxic” each time.
